According to IntAct's records for PubMed 24389026:

B1: Ubiquitin-conjugating enzyme E2 T (Homo sapiens), Q9NPD8 (parent)
chain: MQRASRLKRELHMLATEPPPGITCWQDKDQMDDLRAQILGGANTPYEKGVFKLEVIIPERYPFEPPQIRFLTPIYHPNIDSAGRICLDVLKLPPKGAWRPSLNIATVLTSIQLLMSEPNPDDPLMADISSEFKYNKPAFLKNARQWTEKHARQKQKADEEEMLDNLPEAGDSRVHNSTQKRKASQLVGIEKKFHPDV
partner: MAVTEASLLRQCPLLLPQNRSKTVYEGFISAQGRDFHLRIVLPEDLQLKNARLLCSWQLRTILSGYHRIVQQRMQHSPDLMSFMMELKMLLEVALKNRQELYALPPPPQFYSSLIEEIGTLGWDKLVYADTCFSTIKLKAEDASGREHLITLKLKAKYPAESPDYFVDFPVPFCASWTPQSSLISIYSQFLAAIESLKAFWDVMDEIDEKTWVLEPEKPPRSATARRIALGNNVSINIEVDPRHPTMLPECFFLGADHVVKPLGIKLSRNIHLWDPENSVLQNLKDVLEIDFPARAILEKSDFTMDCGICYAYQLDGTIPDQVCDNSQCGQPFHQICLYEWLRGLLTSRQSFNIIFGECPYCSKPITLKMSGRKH
B2: E3 ubiquitin-protein ligase FANCL (Homo sapiens), Q9NW38-1 (parent)
chain: B1 partner

Variants of: B1
Details: with FANCL

| Variant | effect of a mutation on the interaction |
| --- | --- |
| R60E | disrupting interaction strength |

Variants of: B2
Details: with ube2t_human UBE2T

| Variant | effect of a mutation on the interaction |
| --- | --- |
| I309A | disrupting interaction strength |
| Y311A | disrupting interaction strength |
| W341A | disrupting interaction strength |
